In the supplement of paper PMC12764529:
± gives the half width of the 95% confidence interval.

Assays:
[1] = folding stability dG unfold (combined trypsin and chymotrypsin); higher = more stable
Outline: (§1)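 Sequencing followed digestion of designed mini-proteins with trypsin and chymotrypsin, each at 11 concentrations in threefold dilutions together with a no-protease condition. The mini-proteins were under 80 residues, had no cysteine, sat in a PA-tagged cDNA display construct, and were kept only if AlphaFold2 dimer inter-PAE was above 15. From the counts, Bayesian fitting gave K50, and unfolding free energy was derived against a sequence-predicted unfolded-state K50 and a shared folded-state K50, per protease or combined.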

[2] = folding stability dG unfold from chymotrypsin proteolysis; higher = more stable
Outline: as §1

[3] = folding stability dG unfold from trypsin proteolysis; higher = more stable
Outline: as §1

Row | Sequence | folding stability dG unfold [1] [kJ/mol] | folding stability dG unfold [2] [kJ/mol] | folding stability dG unfold [3] [kJ/mol]
1 | SAGGSAGGSAGNPPNKPKPIIKVVPFRYRFYIPETGSVIEIDIYVFEDDTVKIKIKTYPLSAGGSAGGSAGG [r11_883_TrMRF] | 21.1 ± 0.92 | 22.5 ± 0.837 | 15.6 ± 1.17
2 | SVFEMPIKLTLKRRDPDGKGRKVKVTIRIRFEMPPNLPPDDKNDPERRKMHQMMHSNMHERAESLADPLASA [r9_237_TrROS] | 6.99 ± 1.17 | 6.68 ± 1.51 | 5.91 ± 0.397
3 | SAGGSAGGPNMYMFKLEIKWYDPGKGKPVATRPITVMVPEDDLPEILKNLPPGFEIKNITIFPMSAGGSAGG [r6_777_TrROS] | 10.2 ± 0.46 | 10.4 ± 0.297 | 9.05 ± 0.243
4 | KTKTIVINAKDLTEEQLRELLKKLGVSEEDVEVSEDGKTVVIKIDGVTIVIVASPPKPVVKPDDPEAKKAAS [r1_57_TrROS_Hall] | 6.74 ± 0.502 | 7.32 ± 0.356 | 5.32 ± 0.213
5 | SAGKLKPGDPVKIKIEIERDPGNGMVRVTYKIEFKDGMYVTMIIPPNGPIHVEIFNPDDGKEREETIPLSAG [r5_55_TrROS] | 10.3 ± 1.09 | 11.2 ± 0.402 | 8.98 ± 0.356
6 | SAGPPVLALFTGSPEDVQELLDRLPPDFEVEVGRLPDLYVARFPPDVPPGTVLLPGADGRPAVVEVVEASAG [r5_123_TrMRF] | 4.76 ± 0.502 | 7.03 ± 0.155 | 2.2 ± 0.172
7 | SAGTAKELAELLPGATVEVDEETGTVTVTVELDGYTVRIEIRVDPETGEIVEIRITVTNPDGEEREFELSAG [r5_367_TrROS_Hall] | 12.3 ± 0.259 | 12.2 ± 0.402 | 12.6 ± 0.322
8 | SAGGSAGGSDPTPVVVEFPFSSEEEAEKKAKEAAEKLKAEGVDIKEVKIEYDPEKGTVTLTLGSAGGSAGGS [r20_155_JUSTAS] | 5.07 ± 0.46 | 4.46 ± 0.259 | 5.69 ± 0.18
9 | SAGKIEIVEVTKNYVKIKIKNKKTNKTIEIKIPVKKKKGKKLSKEELEELAKKLAKELYPDMKIEVEKVSAG [r5_293_TrROS_Hall] | 13.9 ± 1.13 | 16.1 ± 0.36 | 9.37 ± 0.381
10 | SAGGSAGGSAGGIKKGDKIKIVKVKVEKRYDKDGKLVEERIVSIEEEEIEVPSLEDLLKASAGGSAGGSAGG [r7_439_TrROS_Hall] | 2.74 ± 1.05 | 3.09 ± 0.251 | 3.06 ± 0.586
11 | SAGGSAGGMPLLALSYPVLKDGKLYRVLFLYSPDGTFLGPFYVSADLTEDIPPDTVVLVHPDALSAGGSAGG [r6_33_TrMRF] | 14.8 ± 0.418 | 14.74 ± 0.126 | 13.5 ± 0.377
12 | SAGGSAGGSPVLLAESVTTLPDGTVVRTRLVRLPDGTYLRETETYPPGGAPARAVERFDDPRLASAGGSAGG [r6_299_JUSTAS] | 12.9 ± 0.247 | 14.66 ± 0.0962 | 6.93 ± 0.163
13 | SMLYRVTTVVVRGDRPLVIPVLADSLEAFLEEAREAIPPELREELPPDAVVRVFVEPVPAVVPEPGEPLPSA [r9_111_TrMRF] | 7.41 ± 1.05 | 8.5 ± 0.289 | 5.96 ± 0.238
14 | SAGDFLKNLPPGIKRWRPVASDPDGHFVFVFKYKTPDRPRYMVIQFPPNGRIQDIHIFPPDEADKAVNKSAG [r5_73_TrROS] | 6.38 ± 1.05 | 8.53 ± 0.962 | 3.01 ± 0.305
15 | SLSPSTPISSEEEAKEAAEKLAEEVREELGEDLPIVVDIERKELEDGTIVVKFTFYVPETGEKLLEVEVGSA [r9_794_JUSTAS] | 5.31 ± 0.669 | 6.51 ± 0.205 | 5.03 ± 0.406
16 | SAGPMTLEILYKRPANEPFTLEDLELAKEVEEAVAALVPSKYKVRIKSIEYEKYPDYYYIRVTIEVEKPSAG [r5_121_TrMRF] | 19.4 ± 0.347 | 19.7 ± 0.255 | 19.1 ± 0.544
17 | SAGGSAGGSAGGSAGRLVKETKTTSYIFTFKKPTGEPISKKTSFVTSSLILLSDPSKISSAGGSAGGSAGGS [r4_450_JUSTAS] | 19.2 ± 1.84 | 19.2 ± 1.63 | 17.5 ± 1.55
18 | SAGGEKIKEALEKVPGLEIVKVEKKDGKVYIHIKAKSEEQRKKAAEALKKLPGIKEVKIEVIPEEELSAGGS [r16_671_TrROS_Hall] | 12.7 ± 0.879 | 12 ± 0.268 | 13.7 ± 0.628
19 | SAGGMKPGEKTIRLLLKLPPGEELTPEQVEELAKRLAEELREKGYEVEVEVVERDGELYVLVEVRFPESAGG [r13_442_TrROS_Hall] | 17.1 ± 0.184 | 17.89 ± 0.142 | 14.9 ± 0.418
20 | SAGGSAGGSAKVYVNPDNNKVAVVLPPPGDSYLVLLFDPETGEVRLIEAPPEEVEELLKKGSAGGSAGGSAG [r3_162_TrMRF] | 3.53 ± 0.586 | 5.21 ± 0.406 | 2.59 ± 0.322
21 | SAGKPKPEETVTLVLEVPKENPIKVEELFEKLPDVKFVEVKVEPLPDDRVLITITVLPEDVEKIKKALGSAG [r5_554_TrMRF] | 11.5 ± 0.544 | 8.9 ± 0.289 | 15 ± 1.17

Row | Sequence | folding stability dG unfold [1] [kJ/mol] | folding stability dG unfold [2] [kJ/mol] | folding stability dG unfold [3] [kJ/mol]
22 | SAGGMIVIEKEEDGFYRITIRNKETGEEVEEIPISKEELEELLKEAEENMSLEEIAEKLGLEIEIEKVSAGG [r13_836_TrROS_Hall] | 5.31 ± 0.502 | 4.06 ± 0.0962 | 7.03 ± 0.197
23 | SAGGSPNYKINVEVEEYEPNPDNGKPYYRARIKIEWYNPENGREQTREIDFWMSPDKAEKFLKDILSAGGSA [r2_357_TrROS] | 9.29 ± 0.711 | 10.7 ± 0.544 | 7.92 ± 0.247
24 | SAGGSAKGKKTRTITIMAPFDNKEEAREQAEEIADNIMNNLPDDMKIKVEVSWNPEDNYVMATIRISAGGSA [r15_981_TrROS] | 2.96 ± 1.05 | 3.52 ± 0.46 | 1.69 ± 1.26
25 | SAMTEEEKKKKKEEEEKKKRELKIIVVAKTKDGKWKKIAEFTVKNKDMSIEELVKKLKDLGVEEVKIFPSAG [r14_318_TrROS_Hall] | 11.2 ± 1.09 | 12.9 ± 0.389 | 7.52 ± 0.343
26 | SAGGSAGGEELAKRLKELFPNAKIVEIKYDKKTKKVTIKVELEPGMSEEQRERLRKLLEELLKKSAGGSAGG [r6_97_TrROS_Hall] | 12.8 ± 0.628 | 11.9 ± 0.414 | 13.1 ± 0.711
27 | SAGGKVKVVEIRYFPGTNTVEILVEDPGPYLATIRIPAAPDAPIEIDEDANFRVPDAPVVLGEVRPPSAGGS [r16_515_TrMRF] | 4.55 ± 0.301 | 3.53 ± 0.502 | 4.99 ± 0.113
28 | SAGMKIKIIKLDKNLEELSEEELKKLLEELAKKGLVEKKKDGKKVIPLTVIDKKTKKTYTFYIEIEKPPSAG [r5_243_TrROS_Hall] | 9.75 ± 0.711 | 11.4 ± 0.238 | 5.69 ± 0.172
29 | SAGSKTISISVPGNWNIEELKAFLSTLPDNVTVYIFYPNKVYVGTVDKKNINLSADSSYDGFKVLVVVPSAG [r5_373_TrMRF] | 11.9 ± 0.347 | 13.05 ± 0.117 | 8.37 ± 0.251
30 | SASSELLELLKALPTPEVPTDPIFTLEEPDRPIRVLSYDPETGLVTMLIPGTGARLIRDPASGTYTLLPSAG [r14_359_JUSTAS] | 2.42 ± 0.276 | 3.85 ± 0.297 | -0.768 ± 0.293
31 | SAGGMNTESSFPITLPDGRKVLKNVKTDPETGEITVTVTSIGDPNVKTTEKVDPENPEKVLETVTKPESAGG [r13_400_JUSTAS] | 0.193 ± 0.628 | 0.862 ± 0.46 | -1.48 ± 0.155
32 | SAGGSAGGSGVSSVLESLPPSYTVTVEKLPESGKLVVTVTSPSGAAPSLTLDEELADLLKELLSAGGSAGGS [r12_174_JUSTAS] | 6.15 ± 0.389 | 2.62 ± 0.126 | 9.18 ± 0.544
33 | SAGGSAGGSKTVYRITIYNEKTGKKLVIEIEESMSEEEKEQKIKDLLKKLLPPGAKIKIEKVPSAGGSAGGS [r20_213_TrROS_Hall] | 17.1 ± 1.05 | 18.6 ± 0.837 | 14 ± 1.84
34 | SAGGAPSTFTSTSPEGETTVTTTTTYYPETGTTTTTTTTTNPATGTSTTTTTTTPVAPPQPPLLEAGASAGG [r13_694_JUSTAS] | 4.38 ± 0.28 | 4.53 ± 0.197 | 3.46 ± 0.234
35 | SAGGSAGGSAMTPEEIKKLFPNAKMKPFKGNGKTVIVIELPSGEKIEIVFDDGKPRIIVYKGSAGGSAGGSA [r18_13_TrMRF] | 5.51 ± 0.544 | 5.46 ± 0.381 | 5.69 ± 0.176
36 | SAGGSAMTPEEIRNMSLEEILKLIKEKLEKGEKVEIEITLPDGRKLRITFERLPNGEIKITIEEVDSAGGSA [r15_857_TrROS_Hall] | 19.7 ± 1.17 | 21.1 ± 1.34 | 14.8 ± 0.837
37 | SAGGSAGGSAKVTYTENSVTIHAKVPEKPLKIEIPNTGKVVTIDLDKEVTVTFPVPKPPDESAGGSAGGSAG [r3_185_TrMRF] | -2.61 ± 0.711 | -1.9 ± 0.418 | -3.29 ± 0.293
38 | SAGGSAKITIKPGETITITIKLENGETVEIRMRVEELPDGTYKITMEITYPDGSKIEMELTLKIKPSAGGSA [r15_476_TrROS_Hall] | 17 ± 1.84 | 18.5 ± 0.753 | 10.8 ± 0.879
39 | SAGGSAGGSAGGMTITVVTEESPGPFKTVTVTTTTPLPNGTLATTTTTTFLPVSPDEPVSAGGSAGGSAGGS [r10_241_JUSTAS] | 4.11 ± 0.335 | 0.871 ± 1.13 | 6.35 ± 0.184
40 | SAGMKPIVELLKKEPNPKVILVEVFPTGGEAKIVVKDKVYVFPVKPGPGRRVLVVDPDGKILEVKPFPVSAG [r5_329_TrMRF] | 2.96 ± 0.502 | 2.97 ± 0.586 | 2.49 ± 0.628
41 | SAGGSAKTKVIEIEIDLSPEEIEELAKKLKEEGKVEEVKVEYDEKTGKVKVTVVVRDKNGEWKKLSSAGGSA [r15_177_TrROS_Hall] | 2.33 ± 0.628 | -0.316 ± 2.01 | 3.57 ± 0.276
42 | SAGGSAGGSKPGKPREIMIPFPDNWFMSIRVWPGRIEIENPDNGKEFEIPIGAPIEIELFPLDSAGGSAGGS [r12_227_TrROS] | 7.92 ± 0.711 | 7.58 ± 0.397 | 8.3 ± 0.146
